Reference: publication PMC3260263, “Structural Characterization of a Novel Chlamydia pneumoniae Type III Secretion-Associated Protein, Cpn0803” (PLoS ONE, 2012)
Several values for one entry are separate records, joined by “and”; a condition that tells them apart may be missing. Identical values can stand only once.

How the values were obtained:
[1] = biological target: the molecule itself; test: SEC; Superdex S200 10/300 GL, 20 mM Tris pH 7, 100 mM KCl, 5 mg/mL protein; column standardized with LMW and HMW standards; peak fractions checked by anti-His Western blot
[2] = biological target: GST-CdsF (Chlamydia pneumoniae CWL029); test: ELISA; glutathione plate assay: GST fusion captured from lysate on glutathione coated plates, bacterial lysate over-expressing the His-tagged protein added, 4°C 2 hours; washed with 500 mM NaCl, 0.1% Triton X-100, 50 mM TRIS-HCl pH 7.5; anti-6xHis antibody, HRP, OPD, absorbance at 450 nm; positive if two standard deviations above GST alone
[3] = biological target: GST-CdsN (Chlamydia pneumoniae CWL029); test: as above
[4] = biological target: GST-CdsQ (Chlamydia pneumoniae CWL029); test: as above

B1: His-Cpn0803 (natural protein)
chain: MAAKTKTLELEDNVFLLLEGNLKRIFATPIGYTTFREFQNVVFNCANGQQEIANFFFEMLINGKLTQELAPQQKQAAHSLIAEFMMPIRVAKDIHERGEFINFITSDMLTQQERCIFLNRLARVDGQEFLLMTDVQNTCHLIRHLLARLLEAQKNPVGEKNLQEIQEEITSLKNHFDELTKALQ
notes: Cpn0803 of Chlamydia pneumoniae CWL029 (ortholog of C. trachomatis CT584), 184 amino acids; Hexamer and dimer in solution by gel filtration; a SeMet derivative was used for phasing only; also called recombinant His-Cpn0803; full-length Cpn0803; source: E. coli, over-expressed, in lysate (glutathione plate assay, GST pull-down); E. coli, purified on a column eluted with 300 mM imidazole …
stoichiometry N [1]: 6 and 2 | absorbance (450 nm) (absorbance units) [2]: 0.36 | absorbance (450 nm) (absorbance units) [3]: 0.38 | absorbance (450 nm) (absorbance units) [4]: 0.41
